Test results: US20210347900A1 (AstraZeneca / MedImmune, published 2021)
Residue numbers refer to the chain shown, from its start. Numbers in names are those of the source. Each block holds one binder with its values, some of them ahead of it.

What was measured:
Human CLEC-7A (Dectin-1) = target: T1, Human CLEC-7A (Dectin-1) (human, UniProt Q9BXN2-2 66-201, limits assumed); assay: IgG binding ELISA on coated antigen, absorbance at 450 nm;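 further: specificity panel of related human receptors, coated alongside human LOX1 as the binding positive control, with an isotype human IgG1-TM antibody setting the nonspecific background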
T1 construct: Bought protein; also called C-type lectin domain family 7 member A
T1 sequence (looked up): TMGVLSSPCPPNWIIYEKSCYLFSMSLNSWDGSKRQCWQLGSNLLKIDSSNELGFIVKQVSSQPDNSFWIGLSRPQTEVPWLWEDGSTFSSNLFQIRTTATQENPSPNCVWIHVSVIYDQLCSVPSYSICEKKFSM

Human CLEC-1A = target: T2, Human CLEC-1A (human, UniProt Q8NC01 74-280, limits assumed); assay: as above
T2 construct: Bought protein; also called C-type lectin domain family 1 member A
T2 sequence (looked up): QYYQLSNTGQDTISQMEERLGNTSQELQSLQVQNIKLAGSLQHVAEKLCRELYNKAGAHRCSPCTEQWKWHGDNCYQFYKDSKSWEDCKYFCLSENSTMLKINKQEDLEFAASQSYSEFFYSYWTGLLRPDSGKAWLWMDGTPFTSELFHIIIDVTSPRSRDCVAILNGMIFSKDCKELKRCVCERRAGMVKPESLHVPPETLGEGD

Human CLEC-4L (DC-SIGN) = target: T3, Human CLEC-4L (DC-SIGN) (human, UniProt Q9NNX6 62-404); assay: as above
T3 construct: Bought protein; also called C-type lectin domain family 4 member L
T3 sequence (looked up): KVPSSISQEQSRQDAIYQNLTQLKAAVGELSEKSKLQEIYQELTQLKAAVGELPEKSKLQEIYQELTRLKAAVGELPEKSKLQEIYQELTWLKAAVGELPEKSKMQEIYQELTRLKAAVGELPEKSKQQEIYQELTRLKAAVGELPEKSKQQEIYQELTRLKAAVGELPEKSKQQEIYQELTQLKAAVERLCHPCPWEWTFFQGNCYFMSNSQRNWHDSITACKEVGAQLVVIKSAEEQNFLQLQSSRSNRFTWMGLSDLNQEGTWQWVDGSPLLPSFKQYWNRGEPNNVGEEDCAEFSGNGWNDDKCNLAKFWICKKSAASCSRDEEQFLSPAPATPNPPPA

Human CLEC-1B (CLEC-2) = target: T4, Human CLEC-1B (CLEC-2) (human, UniProt Q9P126 58-229, limits assumed); assay: as above
T4 construct: Bought protein; also called C-type lectin domain family 1 member B

Human SR-A1 (MSR) = target: T5, Human SR-A1 (MSR) (human, UniProt P21757 77-451); assay: as above
T5 construct: Bought protein; also called Macrophage scavenger receptor types I and II
T5 sequence (looked up): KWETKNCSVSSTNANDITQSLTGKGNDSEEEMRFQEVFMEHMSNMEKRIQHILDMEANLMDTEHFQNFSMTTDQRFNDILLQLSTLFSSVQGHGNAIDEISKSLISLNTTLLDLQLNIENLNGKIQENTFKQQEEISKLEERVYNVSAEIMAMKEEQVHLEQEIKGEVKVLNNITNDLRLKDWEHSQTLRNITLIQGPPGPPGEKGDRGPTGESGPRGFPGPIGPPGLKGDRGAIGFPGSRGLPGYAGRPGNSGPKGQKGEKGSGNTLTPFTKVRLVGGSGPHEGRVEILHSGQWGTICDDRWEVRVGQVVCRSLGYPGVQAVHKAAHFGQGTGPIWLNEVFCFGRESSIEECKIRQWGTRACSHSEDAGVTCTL

Human SR-B3 (CD36) = target: T6, Human SR-B3 (CD36) (human, UniProt P16671 30-439); assay: as above
T6 construct: Bought protein; also called Platelet glycoprotein 4

[1] = target: T7, mouse LOX1-(FlagHis) extracellular domain (mouse, UniProt Q9EQ09 55-363); assay: IgG binding ELISA on coated antigen, europium anti-human IgG detection
T7 construct: extracellular domain

[2] = target: T8, rat LOX1-(FlagHis) extracellular domain (rat, UniProt O70156 55-364); assay: as above
T8 construct: extracellular domain

[3] = target: T9, rabbit LOX1-(FlagHis) extracellular domain (rabbit, UniProt Q9XTA8 55-274); assay: as above
T9 construct: extracellular domain

[4] = target: T10, human LOX1 on cells (human LOX1 transfected CHO TREX cells) (human, UniProt P78380 1-273); assay: cell-based or functional assay
[5] = target: T10, human LOX1 on cells (human LOX1 …); assay: competition with DyLight 649 oxLDL on hLOX1 CHO TREX cells (FMAT), mean
[6] = target: T10, human LOX1 on cells (human LOX1 …); assay: competition with DyLight 649 AGE-BSA on hLOX1 CHO TREX cells (FMAT), mean
[7] = target: T11, recombinant human LOX1 (R&D Systems) (human, UniProt P78380 61-273); assay: competition with biotin CRP on immobilised recombinant hLOX1 (DELFIA), mean
[8] = target: T12, human LOX1 SNP K167N variant on cells (K167N SNP transfected CHO TREX cells) (human, UniProt P78380 1-273); assay: competition with DyLight 649 oxLDL on K167N hLOX1 CHO TREX cells (FMAT), mean
T12 construct: whole, on cells; also called hLOX1 K167N; K167N hLOX1 CHO

[9] = target: T10, human LOX1 on cells (human LOX1 …); assay: competition with DyLight 649 oxLDL on human LOX1 CHO TREX cells, FMAT
[10] = target: T10, human LOX1 on cells (human LOX1 …); assay: competition with DyLight 649 AGE-BSA on human LOX1 CHO TREX cells, FMAT
[11] = target: T11, recombinant human LOX1 (R&D Systems); assay: competition with biotin CRP on plate-bound recombinant human LOX1, DELFIA
[12] = target: T12, human LOX1 SNP K167N variant on cells …; assay: competition with DyLight 649 oxLDL on human LOX1 K167N CHO TREX cells, FMAT
[13] = target: T13, cynomolgus LOX1-(FlagHis) extracellular domain (cynomolgus monkey, UniProt A0A2K5VQ73 76-291); assay: Biacore, antibody captured on protein G, LOX1 ECD as analyte
T13 construct: extracellular domain; Made in HEK293 EBNA cells; also called cynoLOX1; cyLOX

[14] = target: T10, human LOX1 on cells (human LOX1 …); assay: competition with DyLight 649 oxLDL on hLOX1 CHO TREX cells (FMAT), mean; mean of n = 3

T4 sequence (Q9P126 58-229 limits assumed): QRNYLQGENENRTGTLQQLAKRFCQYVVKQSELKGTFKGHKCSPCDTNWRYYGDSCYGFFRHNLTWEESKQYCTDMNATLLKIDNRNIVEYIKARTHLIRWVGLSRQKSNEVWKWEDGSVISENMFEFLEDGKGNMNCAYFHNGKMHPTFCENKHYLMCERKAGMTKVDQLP
T9 sequence (Q9XTA8 55-274): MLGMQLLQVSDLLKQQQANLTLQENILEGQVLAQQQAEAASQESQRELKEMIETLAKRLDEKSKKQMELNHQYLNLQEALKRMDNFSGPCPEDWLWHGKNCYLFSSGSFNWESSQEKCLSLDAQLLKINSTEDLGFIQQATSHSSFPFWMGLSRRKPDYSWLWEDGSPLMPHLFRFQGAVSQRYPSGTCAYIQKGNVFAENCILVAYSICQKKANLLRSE
T6 sequence (P16671 30-439 limits assumed): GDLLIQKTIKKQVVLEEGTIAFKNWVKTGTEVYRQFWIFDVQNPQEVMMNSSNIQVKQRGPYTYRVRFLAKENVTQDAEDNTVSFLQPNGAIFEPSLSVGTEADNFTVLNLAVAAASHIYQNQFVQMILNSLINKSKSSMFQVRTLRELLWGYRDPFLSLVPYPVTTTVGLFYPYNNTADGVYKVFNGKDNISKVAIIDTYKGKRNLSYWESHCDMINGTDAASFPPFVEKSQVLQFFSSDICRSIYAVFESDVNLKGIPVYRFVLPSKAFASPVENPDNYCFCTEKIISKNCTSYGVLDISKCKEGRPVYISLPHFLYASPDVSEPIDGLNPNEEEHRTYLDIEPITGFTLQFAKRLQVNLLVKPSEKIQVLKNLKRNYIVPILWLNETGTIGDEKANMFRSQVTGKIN
T7 sequence (Q9EQ09 55-363): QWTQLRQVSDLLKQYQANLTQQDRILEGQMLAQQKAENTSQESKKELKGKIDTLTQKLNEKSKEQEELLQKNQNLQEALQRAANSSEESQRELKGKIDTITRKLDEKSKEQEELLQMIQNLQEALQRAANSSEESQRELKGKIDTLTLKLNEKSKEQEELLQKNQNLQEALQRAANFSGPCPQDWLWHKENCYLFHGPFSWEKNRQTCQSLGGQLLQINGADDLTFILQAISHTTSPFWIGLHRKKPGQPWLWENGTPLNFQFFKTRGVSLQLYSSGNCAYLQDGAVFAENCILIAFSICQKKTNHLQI
T8 sequence (O70156 55-364): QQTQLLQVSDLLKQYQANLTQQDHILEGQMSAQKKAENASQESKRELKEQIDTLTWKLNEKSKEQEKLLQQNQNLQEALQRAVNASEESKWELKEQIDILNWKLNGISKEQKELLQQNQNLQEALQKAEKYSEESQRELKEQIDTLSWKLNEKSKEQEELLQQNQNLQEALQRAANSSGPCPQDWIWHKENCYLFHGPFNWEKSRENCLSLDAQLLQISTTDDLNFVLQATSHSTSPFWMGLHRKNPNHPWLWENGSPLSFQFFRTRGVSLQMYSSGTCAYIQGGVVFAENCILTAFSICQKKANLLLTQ

binding result (Human CLEC-7A (Dectin-1)): no binding
binding result (Human CLEC-1A): no binding
binding result (Human CLEC-4L (DC-SIGN)): no binding
binding result (Human CLEC-1B (CLEC-2)): no binding
binding result (Human SR-A1 (MSR)): no binding
binding result (Human SR-B3 (CD36)): no binding
B1: LX6960073_gl IgG1-TM (antibody, V domains shown)
VH: EVQLVESGGGLVQPGRSLRLSCAASGFTSDDYAMHWVRQAPGKGLEWVSGISWNSGSIGYADSVKGRFTISRDNAKNSLYLQMNGLRAEDTAVYYCAREGSWNYDALDIWGQGTMVTVSS
VL: QSALTQPASVSGSPGQPITISCTGTSSDVGGYNYVSWYQQHPGKAPKLMIYDVSKRPSGVSNRFSGSKSGNTASLTISGLQAEDEADYYCMGGMGRSTNWVFGGGTKLTVL
notes: Whole human IgG1-TM, germlined
binding result [1]: no binding (tested: 10 µg/mL (single concentration))
binding result [2]: no binding (tested: 10 µg/mL (single concentration))
binding result [3]: no binding (tested: 10 µg/mL (single concentration))

ROS ASSAY (IC50, mean) [4]: 2.21 nM
oxLDL/hLOX1 CHO Internalisation (IC50, mean) [4]: 0.38 nM
binding result (Human CLEC-7A (Dectin-1)): no binding
binding result (Human CLEC-1A): no binding
binding result (Human CLEC-4L (DC-SIGN)): no binding
binding result (Human CLEC-1B (CLEC-2)): no binding
binding result (Human SR-A1 (MSR)): no binding
binding result (Human SR-B3 (CD36)): no binding
IC50 [5]: 0.02 nM
IC50 [6]: 0.0177 nM
IC50 [7]: 3 nM
IC50 [8]: 0.105 nM
IC50 (read off the curve) [9]: ~0.8 nM
IC50 (read off the curve) [10]: ~0.02 nM
IC50 (read off the curve) [11]: ~3 nM
IC50 (read off the curve) [12]: ~0.3 nM
B2: LX6960073_G82bS_gl IgG1-TM (antibody, V domains shown)
VH: B1 VH with G85S
VL: B1 VL
notes: Whole human IgG1-TM, germlined, with heavy chain G82bS (Kabat); also called LOX10696_73
binding result [1]: no binding (tested: 10 µg/mL (single concentration))
binding result [2]: no binding (tested: 10 µg/mL (single concentration))
binding result [3]: no binding (tested: 10 µg/mL (single concentration))

ROS ASSAY (IC50, mean) [4]: 1.98 nM
oxLDL/hLOX1 CHO Internalisation (IC50, mean) [4]: 0.312 nM
Kd [13]: 0.154 nM
koff [13]: 0.000168 s⁻¹
kon [13]: 1.09e+06 M⁻¹ s⁻¹
binding result (Human CLEC-7A (Dectin-1)): no binding
binding result (Human CLEC-1A): no binding
binding result (Human CLEC-4L (DC-SIGN)): no binding
binding result (Human CLEC-1B (CLEC-2)): no binding
binding result (Human SR-A1 (MSR)): no binding
binding result (Human SR-B3 (CD36)): no binding
IC50 [6]: 0.0207 nM
IC50 [7]: 5.02 nM
IC50 [8]: 0.492 nM
binding result [3]: binds
IC50 (read off the curve) [9]: ~1 nM
IC50 [14]: 0.105 nM
IC50 (read off the curve) [11]: ~5 nM
IC50 (read off the curve) [12]: ~0.4 nM
B3: LX5140110 IgG1-TM (antibody, V domains shown)
VH: QVQLVQSGAEVKKPGASVKVSCKVSGYTLTELSMHWVRQAPGKGLEWMGGFDPEDFKYHTHQKFQGRVTMTEDTSTDTAYMELSSLRSEDTAVYYCALVWGTQGKGVRGWDYYYGMDVWGQGTTVTVSS
VL: QSVVTQPPSVSGAPGQRVTISCTGSSSNIGAGYDVHWYQQLPGTAPKLLIYGNSNRPSGVPDRFSGSKSGTSASLAITGLQAEDEADYYCQSYDSSLSGWVFGGGTKLTVL
notes: Whole human IgG1-TM (L234F/L235E/P331S); also called LOX514110; LOX514_110
binding result [1]: no binding (tested: 10 µg/mL (single concentration))
binding result [2]: no binding (tested: 10 µg/mL (single concentration))

binding result (Human CLEC-7A (Dectin-1)): no binding
binding result (Human CLEC-1A): no binding
binding result (Human CLEC-4L (DC-SIGN)): no binding
binding result (Human CLEC-1B (CLEC-2)): no binding
binding result (Human SR-A1 (MSR)): no binding
binding result (Human SR-B3 (CD36)): no binding
B4: LX5140093_N>D IgG1-TM (antibody, V domains shown)
VH: B3 VH with F56W, K57A, T60Q, H61A, L98T, V99P, W100D, T102Q
VL: B3 VL with L97H, S98R, G99A, V101A
notes: Whole human IgG1-TM; Heavy chain N96D (Kabat) variant of LX5140093; also called LX5140093_D
binding result [1]: no binding (tested: 10 µg/mL (single concentration))
binding result [2]: no binding (tested: 10 µg/mL (single concentration))
binding result [3]: no binding (tested: 10 µg/mL (single concentration))

binding result (Human CLEC-7A (Dectin-1)): no binding
binding result (Human CLEC-1A): no binding
binding result (Human CLEC-4L (DC-SIGN)): no binding
binding result (Human CLEC-1B (CLEC-2)): no binding
binding result (Human SR-A1 (MSR)): no binding
binding result (Human SR-B3 (CD36)): no binding
binding result [3]: binds
B5: LX5140092_N>D IgG1-TM (antibody, V domains shown)
VH: B3 VH with F56W, T60L, H61S, L98T, V99P, W100D, Q103H, G104Q, K105G
VL: B3 VL
notes: Whole human IgG1-TM; Heavy chain N96D (Kabat) variant of LX5140092; also called LX5140092_D
binding result [1]: no binding (tested: 10 µg/mL (single concentration))
binding result [2]: no binding (tested: 10 µg/mL (single concentration))

binding result (Human CLEC-7A (Dectin-1)): no binding
binding result (Human CLEC-1A): no binding
binding result (Human CLEC-4L (DC-SIGN)): no binding
binding result (Human CLEC-1B (CLEC-2)): no binding
binding result (Human SR-A1 (MSR)): no binding
binding result (Human SR-B3 (CD36)): no binding
binding result [3]: binds
B6: LX5140108 IgG1-TM (antibody, V domains shown)
VH: B3 VH with F56W, K57S, Y58N, T60V, H61S, A97L, L98T, V99S, W100T, T102R
VL: B3 VL
notes: Whole human IgG1-TM (L234F/L235E/P331S)
binding result [1]: no binding (tested: 10 µg/mL (single concentration))
binding result [2]: no binding (tested: 10 µg/mL (single concentration))
